According to patent US20250320312A1 (OXITOPE PHARMA B V, published 2025):
Positions count from the first letter of the chain named.

B1: PcOxP_DB04_B06 (scFv, V domains shown)
VH: EVQLLESGGGLVQPGGSLRLSCAASGFTFSDAYMEWVRQAPGKGLEWVAASRNKANDYTTEYADSVKGRFTISRDNSKNTLYLQMNSLRAEDTAVYYCARDYYGSSYWYFDVWGQGTLVTVSS
VL: DIQMTQSPSSLSASVGDRVTITCTASESLYSSKHKVHYLAWYQQKPGKAPKLLIYGASNRYIGVPSRFSGSGSGTDFTLTISSLQPEDFATYYCAQFYDYPLTFGGGTKVEIK
notes: scFv in periplasmic extract
B2: PcOxP_DB03_G10 (scFv, V domains shown)
VH: B1 VH
VL: B1 VL with Y61Q, D99T
notes: scFv in periplasmic extract
B3: PcOxP_DB03_H07 (scFv, V domains shown)
VH: B1 VH with A32Y
VL: B1 VL with Y61D, A95G, D99S
notes: scFv in periplasmic extract
B4: PcOxP_DB03_H08 (scFv, V domains shown)
VH: B1 VH with F27G, A32F, D57T
VL: B1 VL with A57S, D99Q
notes: scFv in periplasmic extract
B5: PcOxP_DB03_H09 (scFv, V domains shown)
VH: B1 VH with D57S
VL: B1 VL with Q96E, D99S
notes: scFv in periplasmic extract
B6: PcOxP_DB04_A07 (scFv, V domains shown)
VH: B1 VH with F29Q, A32F
VL: B1 VL with A57I, D99S
notes: scFv in periplasmic extract
B7: PcOxP_DB04_A09 (scFv, V domains shown)
VH: B1 VH with A32Y, A55W
VL: B1 VL with S26E, R60L, I62S, D99S
notes: scFv in periplasmic extract
B8: PcOxP_DB04_A10 (scFv, V domains shown)
VH: B1 VH with F27D, A32F, A55W
VL: B1 VL with Y61Q, D99S
notes: scFv in periplasmic extract
B9: PcOxP_DB04_A12 (scFv, V domains shown)
VH: B1 VH with A32G, A55W
VL: B1 VL with I62D, D99S
notes: scFv in periplasmic extract
B10: PcOxP_DB04_B08 (scFv, V domains shown)
VH: B1 VH with A32D
VL: B1 VL with A57L, Y98F, D99S
notes: scFv in periplasmic extract
B11: PcOxP_DB04_C03 (scFv, V domains shown)
VH: B1 VH with F29T, A32F, D57S
VL: B1 VL with N59S, R60L, I62S, D99E
notes: scFv in periplasmic extract
B12: PcOxP_DB04_C08 (scFv, V domains shown)
VH: B1 VH with F27E, A32F
VL: B1 VL with K35G, D99Q
notes: scFv in periplasmic extract
B13: PcOxP_DB04_D08 (scFv, V domains shown)
VH: B1 VH with A32H
VL: B1 VL with Y61A, D99T
notes: scFv in periplasmic extract
B14: PcOxP_DB04_F06 (scFv, V domains shown)
VH: B1 VH with F27D, A32F
VL: B1 VL with Y30S, D99S
notes: scFv in periplasmic extract
B15: PcOxP_DB04_F11 (scFv, V domains shown)
VH: B1 VH with F29G, A32F, N53G, A55G, D57S, Y107T
VL: B1 VL with I62A, A95G, D99S
notes: scFv in periplasmic extract
B16: PcOxP_DB04_G06 (scFv, V domains shown)
VH: B1 VH with A32F, N53W, G104E
VL: B1 VL with E27Q, D99V
notes: scFv in periplasmic extract
B17: PcOxP_DB04_H07 (scFv, V domains shown)
VH: B1 VH with S30E, A32F
VL: B1 VL with Y61V, D99S
notes: scFv in periplasmic extract
B18: PcOxP_DB04_H08 (scFv, V domains shown)
VH: B1 VH with A32G
VL: B1 VL with R60L, I62S, D99S
notes: scFv in periplasmic extract
B19: PcOxP_DB04_H10 (scFv, V domains shown)
VH: B1 VH with F27A, A32F, M34V
VL: B1 VL with A57P, D99S
notes: scFv in periplasmic extract
B20: PcOxP_DB03_H03 (scFv, V domains shown)
VH: B1 VH with F29G, A32F, A55W
VL: DIQMTQSPSSLSASVGDRVTITCTASESLSSSKHKHYLAWYQQKPGKAPKLLIYGASSRYSGVPSRFSGSGSGTDFTLTISSLQPEDFATYYCAQFYSYPLTFGGGTKVEIK
notes: scFv in periplasmic extract
B21: PcOxP_DB04_H03 (scFv, V domains shown)
VH: B1 VH with T28P, A32F
VL: DIQMTQSPSSLSASVGDRVTITCRASESLYSSLHKYLAWYQQKPGKAPKLLIYGASNLQIGVPSRFSGSGSGTDFTLTISSLQPEDFATYYCAQFYSYPLTFGGGTKVEIK
notes: scFv in periplasmic extract
B22: PcOxP_DB01_A03 (scFv, V domains shown)
VH: B1 VH with A32Y
VL: DIVMTQSPDSLAVSLGERATINCTASESLYSSKHKVHYLAWYQQKPGQPPKLLIYGASNRYIGVPDRFSGSGSGTDFTLTISSLQAEDVAVYYCAQFYSYPLTFGGGTKVEIK
notes: scFv in periplasmic extract
B23: PcOxP_DB01_A04 (scFv, V domains shown)
VH: B1 VH with F29H, A32F
VL: B22 VL
notes: scFv in periplasmic extract
B24: PcOxP_DB01_A05 (scFv, V domains shown)
VH: B1 VH with A32Y, S105N
VL: B22 VL
notes: scFv in periplasmic extract
B25: PcOxP_DB01_A08 (scFv, V domains shown)
VH: B1 VH with F29Q, A32F, S51I, D57S
VL: B22 VL with L29V, H34N, V36K
notes: scFv in periplasmic extract
B26: PcOxP_DB01_B02 (scFv, V domains shown)
VH: B1 VH with F27G, A32F, D57S, E61A
VL: B22 VL
notes: scFv in periplasmic extract
B27: PcOxP_DB01_B03 (scFv, V domains shown)
VH: B1 VH with D31S, A32Y
VL: B22 VL
notes: scFv in periplasmic extract
B28: PcOxP_DB04_G09 (scFv, V domains shown)
VH: B1 VH with F27N, A32F, A55W
VL: B22 VL
notes: scFv in periplasmic extract

Target: T1, Peptide 8: Biotin-AEAAAKEAAAKEAAAKEAAAKAAA-Tyr-acid (N-terminal biotin; C-terminal acid; no PC)
T1 construct: control peptide without PC
T1 peptide: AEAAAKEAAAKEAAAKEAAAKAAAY
Experiment: scFv ELISA
Procedure, shortened: (§1)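 Bound scFv was read as OD450 after HRP–anti-V5 detection, TMB development and HCl stop. PPE with BSA was incubated 1 h at RT on BSA-blocked wells coated overnight at 4° C. with peptide, or on streptavidin wells loaded 1 h with biotinylated PC-peptides at 1 μg/mL.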

| Binder | OD450 [OD450] |
| --- | --- |
| B1 | 0.06 |
| B2 | 0.05 |
| B3 | 0.05 |
| B4 | 0.06 |
| B5 | 0.06 |
| B6 | 0.05 |
| B7 | 0.06 |
| B8 | 0.06 |
| B9 | 0.06 |
| B10 | 0.05 |
| B11 | 0.06 |
| B12 | 0.06 |
| B13 | 0.07 |
| B14 | 0.06 |
| B15 | 0.06 |
| B16 | 0.07 |
| B17 | 0.05 |
| B18 | 0.06 |
| B19 | 0.07 |
| B20 | 0.07 |
| B21 | 0.08 |
| B22 | 0.04 |
| B23 | 0.04 |
| B24 | 0.04 |
| B25 | 0.05 |
| B26 | 0.05 |
| B27 | 0.05 |

Target: T2, Peptide 4: Biotin-AGGGGSGGGGSGGGGSAAA-Tyr-acid (N-terminal biotin; C-terminal acid)
T2 construct: Control peptide without PC
T2 peptide: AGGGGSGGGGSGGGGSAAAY
Experiment: scFv ELISA
Procedure, shortened: as §1

| Binder | OD450 [OD450] |
| --- | --- |
| B28 | 0.05 |

Target: T3, Peptide 4: Biotin-AGGGGSGGGGSGGGGSAAA-Tyr-acid (N-terminal biotin; C-terminal acid; no PC)
T3 construct: control peptide without PC
T3 peptide: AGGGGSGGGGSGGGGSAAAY
Experiment: scFv ELISA
Procedure, shortened: as §1

| Binder | OD450 [OD450] |
| --- | --- |
| B1 | 0.06 |
| B2 | 0.05 |
| B3 | 0.05 |
| B4 | 0.06 |
| B5 | 0.06 |
| B6 | 0.05 |
| B7 | 0.06 |
| B8 | 0.06 |
| B9 | 0.07 |
| B10 | 0.06 |
| B11 | 0.06 |
| B12 | 0.05 |
| B13 | 0.07 |
| B14 | 0.06 |
| B15 | 0.07 |
| B16 | 0.07 |
| B17 | 0.06 |
| B18 | 0.07 |
| B19 | 0.08 |
| B20 | 0.07 |
| B21 | 0.07 |
| B22 | 0.05 |
| B23 | 0.04 |
| B24 | 0.04 |
| B25 | 0.05 |
| B26 | 0.06 |
| B27 | 0.05 |

Target: T4, Peptide 8: Biotin-AEAAAKEAAAKEAAAKEAAAKAAA-Tyr-acid (N-terminal biotin; C-terminal acid)
T4 construct: Control peptide without PC
T4 peptide: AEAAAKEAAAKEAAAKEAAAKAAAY
Experiment: scFv ELISA
Procedure, shortened: as §1

| Binder | OD450 [OD450] |
| --- | --- |
| B28 | 0.06 |

target: BSA (UniProt P02769); experiment: scFv ELISA
Sequence (P02769 25-607 limits assumed): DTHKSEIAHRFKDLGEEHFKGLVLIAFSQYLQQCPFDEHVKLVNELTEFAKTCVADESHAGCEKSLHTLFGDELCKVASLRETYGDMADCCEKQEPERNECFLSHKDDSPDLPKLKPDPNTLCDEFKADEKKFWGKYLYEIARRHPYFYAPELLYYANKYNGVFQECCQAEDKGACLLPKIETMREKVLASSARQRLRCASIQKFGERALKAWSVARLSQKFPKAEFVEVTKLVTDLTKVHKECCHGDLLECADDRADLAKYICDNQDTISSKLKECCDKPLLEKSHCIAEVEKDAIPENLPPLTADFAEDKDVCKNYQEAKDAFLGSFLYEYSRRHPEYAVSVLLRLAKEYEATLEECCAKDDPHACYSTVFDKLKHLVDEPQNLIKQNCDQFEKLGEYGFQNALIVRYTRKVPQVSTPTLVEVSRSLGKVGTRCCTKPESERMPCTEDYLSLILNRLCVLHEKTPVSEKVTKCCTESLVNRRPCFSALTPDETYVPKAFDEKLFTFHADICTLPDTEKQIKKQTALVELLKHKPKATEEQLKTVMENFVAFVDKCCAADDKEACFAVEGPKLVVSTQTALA

| Binder | OD450 [OD450] |
| --- | --- |
| B28 | 0.08 |
| B1 | 0.1 |
| B2 | 0.11 |
| B3 | 0.08 |
| B4 | 0.12 |
| B5 | 0.11 |
| B6 | 0.09 |
| B7 | 0.12 |
| B8 | 0.11 |
| B9 | 0.12 |
| B10 | 0.11 |
| B11 | 0.1 |
| B12 | 0.08 |
| B13 | 0.12 |
| B14 | 0.1 |
| B15 | 0.1 |
| B16 | 0.11 |
| B17 | 0.09 |
| B18 | 0.09 |
| B19 | 0.1 |
| B20 | 0.12 |
| B21 | 0.1 |
| B22 | 0.07 |
| B23 | 0.07 |
| B24 | 0.06 |
| B25 | 0.09 |
| B26 | 0.09 |
| B27 | 0.08 |

target: Peptide 1: Biotin-…-[Tyr(PC)]-acid; experiment: scFv ELISA

| Binder | OD450 [OD450] |
| --- | --- |
| B28 | 0.48 |
| B1 | 0.66 |
| B2 | 1.8 |
| B3 | 1.91 |
| B4 | 0.91 |
| B5 | 0.93 |
| B6 | 1.54 |
| B7 | 1.16 |
| B8 | 0.74 |
| B9 | 0.71 |
| B10 | 1.33 |
| B11 | 1.34 |
| B12 | 0.69 |
| B13 | 1.6 |
| B14 | 0.75 |
| B15 | 0.58 |
| B16 | 1.03 |
| B17 | 0.58 |
| B18 | 0.85 |
| B19 | 0.54 |
| B20 | 0.27 |
| B21 | 0.8 |
| B22 | 0.86 |
| B23 | 0.31 |
| B24 | 0.83 |
| B25 | 0.16 |
| B26 | 0.68 |
| B27 | 0.82 |

target: Peptide 5: Biotin-…-[Tyr(PC)]-acid; experiment: scFv ELISA

| Binder | OD450 [OD450] |
| --- | --- |
| B28 | 1.08 |
| B1 | 1.06 |
| B2 | 1.21 |
| B3 | 1.64 |
| B4 | 1.18 |
| B5 | 1.25 |
| B6 | 2.11 |
| B7 | 1.96 |
| B8 | 1.61 |
| B9 | 1.38 |
| B10 | 1.56 |
| B11 | 1.87 |
| B12 | 1.07 |
| B13 | 1.96 |
| B14 | 1.3 |
| B15 | 1.27 |
| B16 | 1.12 |
| B17 | 1.02 |
| B18 | 1.42 |
| B19 | 1.01 |
| B20 | 1.32 |
| B21 | 1.05 |
| B22 | 1.38 |
| B23 | 0.75 |
| B24 | 1.28 |
| B25 | 1.12 |
| B26 | 1.41 |
| B27 | 1.25 |
